In the supplement of paper PMC10567573:

B1: TRIM15 (parent)
chain: LSQMGAQSSGKILLCPLCQEEEQA

Variants of: B1
Assay: protein stability index of a GFP-peptide fusion (GPS, HEK-293T) (PSI 1-6); higher = more stable
Settings: c terminus: a fixed tail appended
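Further: lentivirally expressed fusions sorted by FACS into six bins by GFP to DsRed ratio, PSI derived from sequencing read proportions per bin multiplied by bin number.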

For LSQMGAQSSGKALLCPLCQEEEQA [I12A], which protein stability index is on record?
Its protein stability index is 4.19.

Which protein stability index does the source give for LSQMGAQSSGKSLLCPLCQEEEQA [I12S] here?
The protein stability index was 4.57.

For LSQMGAQSSGKNLLCPLCQEEEQA [I12N], which protein stability index is on record?
Its protein stability index is 3.09.

Which protein stability index does the source give for LSQMGAQSSGKHLLCPLCQEEEQA [I12H] here?
Its protein stability index is 3.51.

For LSQMGAQSSGKLLLCPLCQEEEQA [I12L], which protein stability index is on record?
Its protein stability index is 4.04.

For LSQMGAQSSGKTLLCPLCQEEEQA [I12T], which protein stability index is on record?
Its protein stability index is 3.42.

Which protein stability index does the source give for LSQMGAQSSGKDLLCPLCQEEEQA [I12D] here?
Its protein stability index is 4.21.

For LSRMGAQSSGKILLCPLCQEEEQA [Q3R], which protein stability index is on record?
The protein stability index was 3.23.

With LSDMGAQSSGKILLCPLCQEEEQA [Q3D] as the variant, how does the protein stability index read?
The protein stability index was 3.97.

Which protein stability index does the source give for LSTMGAQSSGKILLCPLCQEEEQA [Q3T] here?
Its protein stability index is 3.58.

Which protein stability index does the source give for LSIMGAQSSGKILLCPLCQEEEQA [Q3I] here?
Its protein stability index is 3.11.

Which protein stability index does the source give for LSWMGAQSSGKILLCPLCQEEEQA [Q3W] here?
The protein stability index was 2.23.

With LSFMGAQSSGKILLCPLCQEEEQA [Q3F] as the variant, how does the protein stability index read?
The protein stability index was 2.9.

For LSCMGAQSSGKILLCPLCQEEEQA [Q3C], which protein stability index is on record?
The protein stability index was 3.18.

For LSQMGAQSSEKILLCPLCQEEEQA [G10E], which protein stability index is on record?
Its protein stability index is 3.89.

For LSQMGAQSSMKILLCPLCQEEEQA [G10M], which protein stability index is on record?
The protein stability index was 3.83.

For LSQMGAQSSTKILLCPLCQEEEQA [G10T], which protein stability index is on record?
Its protein stability index is 3.71.

For LSQMGAQSSDKILLCPLCQEEEQA [G10D], which protein stability index is on record?
The protein stability index was 4.3.

Which protein stability index does the source give for LSQMGAQSSIKILLCPLCQEEEQA [G10I] here?
The protein stability index was 2.5.

Which protein stability index does the source give for LSQMGAQSSFKILLCPLCQEEEQA [G10F] here?
The protein stability index was 2.74.

Which protein stability index does the source give for LSQMGAQSSYKILLCPLCQEEEQA [G10Y] here?
Its protein stability index is 2.83.

For LSQMGAQSSNKILLCPLCQEEEQA [G10N], which protein stability index is on record?
The protein stability index was 4.54.

With LSQMGAQSSVKILLCPLCQEEEQA [G10V] as the variant, how does the protein stability index read?
The protein stability index was 3.19.

For LSQMGAQSSGKILLCPLCQEGEQA [E21G], which protein stability index is on record?
The protein stability index was 2.83.

Which protein stability index does the source give for LSQMGAQSSGKILLCPLCQEAEQA [E21A] here?
The protein stability index was 3.22.

For LSQMGAQSSGKILLCPLCQEFEQA [E21F], which protein stability index is on record?
Its protein stability index is 2.4.

With LSQMGAQSSGKILLCPLCQEWEQA [E21W] as the variant, how does the protein stability index read?
Its protein stability index is 2.89.

Which protein stability index does the source give for LSQMGAQSSGKILLCPLCQETEQA [E21T] here?
The protein stability index was 3.36.

With LSQMGAQSSGKILLCPLCQECEQA [E21C] as the variant, how does the protein stability index read?
Its protein stability index is 2.55.

With LSQMGAQSSGKILLCPLCQEIEQA [E21I] as the variant, how does the protein stability index read?
Its protein stability index is 2.26.

For LSQMGAQSSGKILLCPLCQEMEQA [E21M], which protein stability index is on record?
The protein stability index was 2.88.

With LSQMGAQSSGKILLCPLCQEKEQA [E21K] as the variant, how does the protein stability index read?
Its protein stability index is 2.85.

With LSQMGAQSSGKILLCPLCQENEQA [E21N] as the variant, how does the protein stability index read?
Its protein stability index is 2.92.

Which protein stability index does the source give for LSQMGAQSSGKILLCPTCQEEEQA [L17T] here?
The protein stability index was 4.3.

With LSQMGAQSSGKILLCPMCQEEEQA [L17M] as the variant, how does the protein stability index read?
Its protein stability index is 3.19.

With LSQMGAQSSGKILLCPACQEEEQA [L17A] as the variant, how does the protein stability index read?
The protein stability index was 3.63.

Which protein stability index does the source give for LSQMGAQSSGKILLCPWCQEEEQA [L17W] here?
Its protein stability index is 3.57.

Which protein stability index does the source give for LSQMGAQSSGKILLCPCCQEEEQA [L17C] here?
The protein stability index was 3.76.

Which protein stability index does the source give for LSQMGAQSSGKILLCPGCQEEEQA [L17G] here?
The protein stability index was 4.13.

Which protein stability index does the source give for LSQMGAQSSGKILLCPHCQEEEQA [L17H] here?
Its protein stability index is 3.79.

For LSQMGAQSSGKILLCPLCQEEEQD [A24D], which protein stability index is on record?
Its protein stability index is 4.56.

Which protein stability index does the source give for LSQMGAQSSGKILLCPLCQEEEQR [A24R] here?
Its protein stability index is 2.99.

Which protein stability index does the source give for LSQMGAQSSGKILLCPLCQEEEQM [A24M] here?
The protein stability index was 2.84.

Which protein stability index does the source give for LSQMGAQSSGKILLCPLCQEEEQY [A24Y] here?
Its protein stability index is 3.55.

For LSQMGAQSSGKILLCPLCQEEEQH [A24H], which protein stability index is on record?
Its protein stability index is 3.59.

Which protein stability index does the source give for LSQMGAQSSGKILLCPLCQEEEQT [A24T] here?
The protein stability index was 3.72.

With LSQMGAQSSGKILLCPLCQEEEQN [A24N] as the variant, how does the protein stability index read?
Its protein stability index is 3.88.

For LSQMGAQSSGKILLCPLCQEEEQG [A24G], which protein stability index is on record?
The protein stability index was 3.51.

Which protein stability index does the source give for LSQMGAQSSGKILLCPLCQEEEQC [A24C] here?
Its protein stability index is 3.14.

With LSQMGAQSSGKILLCPLCQEEEQK [A24K] as the variant, how does the protein stability index read?
Its protein stability index is 4.51.

With LSQMGAQSSGKILLCPLCQEEEQP [A24P] as the variant, how does the protein stability index read?
Its protein stability index is 3.45.

For LSQMGAQSSGKILLCPLCQEEEQS [A24S], which protein stability index is on record?
The protein stability index was 3.94.

Which protein stability index does the source give for LSQMGAYSSGKILLCPLCQEEEQA [Q7Y] here?
Its protein stability index is 3.24.

With LSQMGAMSSGKILLCPLCQEEEQA [Q7M] as the variant, how does the protein stability index read?
Its protein stability index is 2.99.

With LSQMGAVSSGKILLCPLCQEEEQA [Q7V] as the variant, how does the protein stability index read?
Its protein stability index is 2.76.

With LSQMGARSSGKILLCPLCQEEEQA [Q7R] as the variant, how does the protein stability index read?
Its protein stability index is 3.5.

With LSQMGASSSGKILLCPLCQEEEQA [Q7S] as the variant, how does the protein stability index read?
Its protein stability index is 3.77.

With LSQMGAISSGKILLCPLCQEEEQA [Q7I] as the variant, how does the protein stability index read?
Its protein stability index is 2.74.

For LSQMGAKSSGKILLCPLCQEEEQA [Q7K], which protein stability index is on record?
Its protein stability index is 3.47.

With LSQMGAPSSGKILLCPLCQEEEQA [Q7P] as the variant, how does the protein stability index read?
The protein stability index was 3.15.

Which protein stability index does the source give for LSQMGAFSSGKILLCPLCQEEEQA [Q7F] here?
Its protein stability index is 2.88.

Which protein stability index does the source give for LSQMGANSSGKILLCPLCQEEEQA [Q7N] here?
The protein stability index was 4.07.

Which protein stability index does the source give for LSQMGAASSGKILLCPLCQEEEQA [Q7A] here?
The protein stability index was 4.11.

With LSQMGAQSSGKILLCPLCIEEEQA [Q19I] as the variant, how does the protein stability index read?
Its protein stability index is 3.18.

Which protein stability index does the source give for LSQMGAQSSGKILLCPLCCEEEQA [Q19C] here?
Its protein stability index is 2.52.

With LSQMGAQSSGKILLCPLCREEEQA [Q19R] as the variant, how does the protein stability index read?
The protein stability index was 3.54.

For LSQMGAQSSGKIMLCPLCQEEEQA [L13M], which protein stability index is on record?
Its protein stability index is 4.74.

For LSQMGAQSSGKITLCPLCQEEEQA [L13T], which protein stability index is on record?
Its protein stability index is 4.51.

With LSQMGAQSSGKIHLCPLCQEEEQA [L13H] as the variant, how does the protein stability index read?
Its protein stability index is 5.52.

For LSQMGAQSSGKIQLCPLCQEEEQA [L13Q], which protein stability index is on record?
The protein stability index was 4.1.

For LSQMGAQSSGKIGLCPLCQEEEQA [L13G], which protein stability index is on record?
The protein stability index was 4.65.

With LSQMGAQSSGKINLCPLCQEEEQA [L13N] as the variant, how does the protein stability index read?
The protein stability index was 4.63.

With LSQMGAQSSGKIPLCPLCQEEEQA [L13P] as the variant, how does the protein stability index read?
The protein stability index was 3.97.

Which protein stability index does the source give for LSQMGAQSSGKIYLCPLCQEEEQA [L13Y] here?
Its protein stability index is 4.25.

With LSQMGAQSSGKILLCPLKQEEEQA [C18K] as the variant, how does the protein stability index read?
The protein stability index was 4.27.

Which protein stability index does the source give for LSQMGAQSSGKILLCPLYQEEEQA [C18Y] here?
The protein stability index was 4.27.

For LSQMGAQSSGKILLCPLEQEEEQA [C18E], which protein stability index is on record?
The protein stability index was 5.13.

With LSQMGAQSSGKILLCPLAQEEEQA [C18A] as the variant, how does the protein stability index read?
The protein stability index was 5.26.

With LSQMGAQSSGKILLCPLNQEEEQA [C18N] as the variant, how does the protein stability index read?
Its protein stability index is 4.38.

Which protein stability index does the source give for LSQMGAQSSGKILLCPLQQEEEQA [C18Q] here?
Its protein stability index is 5.56.

With LSQMGAQSSGKILLCPLIQEEEQA [C18I] as the variant, how does the protein stability index read?
Its protein stability index is 3.49.

For LSQMGAQSSGKILLCPLVQEEEQA [C18V], which protein stability index is on record?
Its protein stability index is 4.76.

With LSQMGAQSSGKILLCPLRQEEEQA [C18R] as the variant, how does the protein stability index read?
The protein stability index was 4.21.

With LSQMGAQSSGKILLCPLCQEEEEA [Q23E] as the variant, how does the protein stability index read?
Its protein stability index is 4.53.

For LSQMGAQSSGKILLCPLCQEEEIA [Q23I], which protein stability index is on record?
The protein stability index was 3.2.

Which protein stability index does the source give for LSQMGAQSSGKILLCPLCQEEETA [Q23T] here?
The protein stability index was 3.33.

Which protein stability index does the source give for LSQMGAQSSGKILLCPLCQEEELA [Q23L] here?
The protein stability index was 3.12.

With LSQMGAQSSGKILLCPLCQEEECA [Q23C] as the variant, how does the protein stability index read?
The protein stability index was 3.58.

For LSQMGAQSSGKILLCPLCQEEEHA [Q23H], which protein stability index is on record?
The protein stability index was 3.96.

For LSQMGAQSSGKILLCPLCQEEEGA [Q23G], which protein stability index is on record?
Its protein stability index is 3.47.

For LSQMGAQSSGKILLCPLCQVEEQA [E20V], which protein stability index is on record?
Its protein stability index is 2.79.

With LSQMGAQSSGKILLCPLCQREEQA [E20R] as the variant, how does the protein stability index read?
The protein stability index was 3.77.

Which protein stability index does the source give for LSQMGAQSSGKILLCPLCQKEEQA [E20K] here?
The protein stability index was 3.58.

With LSQMGAQSSGKILLCPLCQIEEQA [E20I] as the variant, how does the protein stability index read?
The protein stability index was 2.79.
